Laboratory results: patent US20180221507A1 (IMAGINAB, published 2018)

B1: IAB22C-1 (other)
scFv: DVQITQSPSSLSASVGDRVTITCRTSRSISQYLAWYQQKPGKVPKLLIYSGSTLQSGVPSRFSGSGSGTDFTLTISSLQPEDVATYYCQQHNENPLTFGGGTKVEIKGGGSGGGGEVQLVESGGGLVQPGGSLRLSCAASGFNIKDTYIHFVRQAPGKGLEWIGRIDPANDNTLYASKFQGKATISADTSKNTAYLQMNSLRAEDTAVYYCGRGYGYYVFDHWGQGTLVTVSSGGC
notes: Cys-diabody (scFv dimer); also called anti-CD8 Cys-diabody, 1 Cys (GGC)
B2: IAB22C-3 (other)
scFv: DVQITQSPSSLSASVGDRVTITCRTSRSISQYLAWYQQKPGKVPKLLIYSGSTLQSGVPSRFSGSGSGTDFTLTISSLQPEDVATYYCQQHNENPLTFGGGTKVEIKSGGGGEVQLVESGGGLVQPGGSLRLSCAASGFNIKDTYIHFVRQAPGKGLEWIGRIDPANDNTLYASKFQGKATISADTSKNTAYLQMNSLRAEDTAVYYCGRGYGYYVFDHWGQGTLVTVSSGGCPPCPPC
notes: Cys-diabody (scFv dimer); also called anti-CD8 Cys-diabody, 3 Cys (CPPCPPC)
B3: IAB22C-2 (other)
scFv: DVQITQSPSSLSASVGDRVTITCRTSRSISQYLAWYQQKPGKVPKLLIYSGSTLQSGVPSRFSGSGSGTDFTLTISSLQPEDVATYYCQQHNENPLTFGGGTKVEIKSGGGGEVQLVESGGGLVQPGGSLRLSCAASGFNIKDTYIHFVRQAPGKGLEWIGRIDPANDNTLYASKFQGKATISADTSKNTAYLQMNSLRAEDTAVYYCGRGYGYYVFDHWGQGTLVTVSSGGCPPC
notes: Cys-diabody (scFv dimer); also called anti-CD8 Cys-diabody, 2 Cys (CPPC)

molecular target: T1, CD8 expressed on the surface of HPB-ALL cells (UniProt P01732 22-235); assay: flow cytometry on HPB-ALL cells, MFI against concentration, four-parameter fit
T1 construct: whole, on cells
Description: The cells were centrifuged at 400 rpm for 5 minutes, re-suspended in 200 uL of cell staining buffer (1% BSA in phosphate buffer saline, 0.09% sodium azide). Data were acquired on the Attune Acoustic Focusing Cytometer (Applied Biosystems, Foster City, Calif.) (FIG. 9A) and Mean Fluorescent Intensity (MFI) values were plotted against concentration for each sample (FIG. 9B). Best fit binding curves and IC₅₀ values were generated with four-parameter logistic nonlinear regression using GraphPad Prism version 6 for Windows (GraphPad Software, La Jolla, Calif.). and binding assessed on an Attune acoustic focusing cytometer (Applied Biosystems) (Table 4.3).

T1 sequence (P01732 22-235): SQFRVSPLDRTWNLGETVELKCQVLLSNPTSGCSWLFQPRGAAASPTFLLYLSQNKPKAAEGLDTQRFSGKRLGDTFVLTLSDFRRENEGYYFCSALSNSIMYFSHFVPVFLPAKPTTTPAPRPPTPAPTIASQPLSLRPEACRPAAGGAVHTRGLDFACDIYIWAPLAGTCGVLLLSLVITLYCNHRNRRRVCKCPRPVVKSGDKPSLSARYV

Row | Binder | EC50 [nM]
1 | B1 | 0.08
2 | B2 | 0.13
3 | B3 | 0.15
